T1: C.Esp1396I controller protein (plasmid pEsp1396I (type II RM system …, UniProt Q8GGH0 1-79))
T1 sequence: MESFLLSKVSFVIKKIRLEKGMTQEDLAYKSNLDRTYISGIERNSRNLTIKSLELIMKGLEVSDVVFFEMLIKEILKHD

B1: 25OL (dsDNA)
DNA 1: ATGTGACTTATAGTCGTGTGATTA
DNA 2: TAATCACACGACTATAAGTCACAT
B2: controller protein C.Esp1396I (natural protein)
chain: T1 sequence
notes: controller protein (C-protein) of the plasmid-borne type II restriction-modification system Esp1396I; 'native C.Esp1396I'; Homodimer; The His tag was removed with thrombin before crystallisation; In both crystals the dimer stands together with a DNA duplex (19 bp OR or 25 bp OL plus half of OR); also called C-protein; not shown: His6, N-terminal, cleaved

Assays:
[1] = molecular target: T1, C.Esp1396I controller protein; assay: X-ray crystallography; dimer bound at OL via HTH, OR half unbound; 10 mM spermidine, protein:DNA 2:1; Crystallization by vapour diffusion: 19OR 0.1 M PCB buffer pH 5.0, 25% PEG 3350, 10 mM spermidine (microseeded); 25OL 0.1 M PCB pH 4.0, 20% PEG 1500, 10 mM spermidine; temperature not stated; conditions: protein: recombinant; tags: N-terminal His6 removed with thrombin; chain copies: 2; (called 25 bp, but printed strand has 24 nt)
[2] = molecular target: the molecule itself; assay: crystal structure; co-crystal of C.Esp1396I with the 19 bp OR DNA duplex (19OR), protein:DNA 1:1, 0.1 M PCB buffer pH 5.0, 25% PEG 3350, 10 mM spermidine, microseeding; 3.0 Å, space group C2

Binder | binding result [1] | binding result [2]
B1 | binds | –
B2 | – | binds
